From the RNAGym collection of RNA variant scans (doi:10.1073/pnas.2313332121)
Variants at the floor of the assay were thinned out.

B1: TPR 5TU (parent)
chain: GGAUCUUCUCGAUCUAACAAAAAAGACAAAUCUGCCACAAAGCUUGAGAGCAUCUUCGGAUGCAGAGGCGGCAGCCUUCGGUGGCGCGAUAGCGCCAACGUUCUCAACUAUGACACGCAAAACGCGUGCUCCGUUGAAUGGAGUUUAUCAUG

Variants of: B1
Experiment: polymerase ribozyme fitness, log enrichment relative to wild type (log ratio); higher = more active; in vitro selection for triplet polymerase activity
Outline: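 Mutant libraries of both subunits of a heterodimeric triplet polymerase ribozyme were PCR-built, transcribed, and selected once in triplicate, with frozen incubation at −7 °C and capture of gel-excised extended constructs on streptavidin beads before RT-PCR. Illumina sequencing of input and output libraries was filtered to genotypes with ≥10 input reads and ≥1 read per output. Fitness is the logarithm of genotype enrichment over wild-type enrichment, using inverse-variance-weighted replicate averages. The logarithm is base 2.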

Variant | polymerase ribozyme fitness (log ratio)
GGAUCUUCUCGAUCUAACCAAAAAGACAAAUCUGCCACAAAGCUUGAGAGCAUCUUCGGAUGCAGAGGCGGCAGCCUUCGGUGGCCCGAUAGCGCCAAUGUUCUCAACUAUGACACGCAAAACGCGUGCUCCGUUGAAUGGAGUUUAUCAUG [A19C G86C C99U] | -2.28
GGAUCUUCUCGAUCUAACCAAAAAGACAAAUCUGCCACAAAGCUUGAGAGCAUCUUCGGAUGCAGAGGCGGCAGCCUUCGGUGGCGUGAUAGCGCCGACGUUCUCAACUAUGACACGCAAAACGCGUGCUCCGUUGUAUGGCGUUUAUCAUG [A19C C87U A97G A137U A142C] | -4.12
GGAUCUUCUCGAUCUAACCAAAAAGACAAAUCUGCCACAAAGCUUGAGAGCAUCUUCGGAUGCAGAGGCGGCAGCCUUUGGUGGCGCGAUAGCGCCAUCGUUCUCAACUAUGACACGCAAAACGCGUGCUCCGUUGAAUGGAGUUUAUCAUG [A19C C79U A98U] | -1.81
GGAUCUUCUCGAUCUAACCAAAAAGACAAAUCUGCCACAAAGCUUGAGAGCAUCUUCGGAUGCAGAGGCGGCAGCCUUCGGUGGCGCGAUAGUGCCAACGUUCUCAACUAUGACACGCAAAACGCGUGCUCCGUUGAAUGGAGUUUAUCAUG [A19C C93U] | 0.111
GGAUCUUCUCGAUCUAACCAAAAAGACAAAUCUGCCACAAAGCUUGAGAGCAUCUUCGGAUGCAGAGGCGGCAGCCUUCGGUGGCGCGAUAGGGCCAACGUUCUCAACUAUGACACGCAAAACGCGUGCUCCGUUGAAUGGAGUUUAUCAUG [A19C C93G] | -2.84
GGAUCUUCUCGAUCUAACCAAAAAGACAAAUCUGCCACAAAGCUUGAGAGCAUCUUUGGAUGCAGAGGCGGCAGCCUUCGGUGGCACGAUAGCGCCAACGUUCUCAACUAUGACACGCAAAACGCGUGCUCCGUUGAAUGGAGUUUAUCAUG [A19C C57U G86A] | -0.316
GGAUCUUCUCGAUCUAACCAAAAAGACAAAUCUGCCACAAAGCUUGAGAGCAUCUUCCGAUGCAGAGGCGGCAGCCUUCGGUGGCGCGAUAGCGUCAACGUUCUCAACUAUGACACGCAAAACGCGUGCUCCGUUGAAUUGAGUUUAUCAUG [A19C G58C C95U G140U] | -3.88
GGAUCUUCUCGAUCUAACCAAAAAGACAAAUCUGCCACAAAGCUUGAGAGCAUCUUCGGAUCCAGAGGCGGCAGCCUUCGGUGACGCGGUAGCGCCAACGUUCUCAACUAUGACACACAAAACGCGUGCUCCGUUGAAUGGAGUUUAUCAUG [A19C G62C G84A A89G G117A] | -2.57
GGAUCUUCUCGAUCUAACCAAAAAGACAAAUCUGCCACAAAGCUUGAGAGCAUCUUCGGAUGCAGAGGCGGAAGCCUUCGGUGGCGCGAUAGCGCCAACGUUCUCAUCUAUGACACGCAAAACGCGUGCUCCGUUGAAUGGAAUUUAUCAUG [A19C C72A A107U G143A] | ≤ -4.2
GGAUCUUCUCGAUCUAACCAAAAAGACAAAUCUGCCACAAAGUUUGAGAGGAUCUUCGGAUGCAGAGGCGACAGCCUUCGGUGGCGGGAUAGCGCCAACGUUCUUAAUUAUGACACGCAAAACGCGUGCUCCGUUGAAUGCAGUUUAUCAUG [A19C C43U C51G G71A C87G C105U C108U G141C] | ≤ -4.2
GGAUCUUCUCGAUCUAACCAAAAAGACAAAUCUGCCACAAAGCUUGAGAGCAUCUUUGGAUGCAGAGGCGGCAGCCUUCGGUGGCGCGAUAGCUCCAACGUUCUCAACUAUGACACGCAAAACGCGUGCUCCGUUGAAUGGAGUUUAUCAUG [A19C C57U G94U] | -0.554
GGAUCUUCUCGAUCUAACCAAAAAGACAAAUCUGCCACAAAGCUUGAGAGCAUCUUCGGAUCCAGAGGCGGAAGCCUUCGGUGGCGAGAUAGCGCCAACGUUCUCAACUAUGACACGCAAAACGCGUGCUUCGUAGAAUGGAGUUUAUCAUG [A19C G62C C72A C87A C131U U135A] | ≤ -4.2
GGAUCUUCUCGAUCUAACCAAAAAGACAAAUCUGCCACAAAGCUUGAGAGCAUCUUCGGAUGCAGAGGCGGCAGCCUUCGGUGGCGUGAUAGCGCCAACGUUCUCAACUAUGACACGCAAAACGCGUGCUCCGUUGAAUGGAGUUUAUCAUG [A19C C87U] | -0.722
GGAUCUUCUCGAUCUAACCAAAAAGACAAAUCUGCCACAAAGCUUGAGAGCAUCUUCGGAUGCAGAGGCGGCAGCCUUCGGUGGUGCGAUAGCGCCAACGUUCUCAACUAUGACACGCAAAACGCGUGCUCCGUUGAAUGGAGUUUAUCAUG [A19C C85U] | -0.536
GGAUCUUCUCGAUCUAACCAAAAAGACAAAUCUGCCAAAAAGCUUGAGAGCAUCUUAGGAUGCAGAGGCGGCAGCCUUCUGUGGCGCGAUAGCGUCAACGUUCUCAACUAUGACAGGCAAAACGCGUGCUCCGUUGAAUGGAGUUUAUCAUG [A19C C38A C57A G80U C95U C116G] | -1.83
GGAUCUUCUCGAUCUAACCAAAAAGACAAAUCUGCCACAAAGCUUGAGAGCAUCUUCGGAUGCAGAGGCGGCAGCCUUCGGUUGCGUGAUAGCGCCAACGUUCUCAACUAUGACACGCAAAACGCGUGCUCCGUUGAAUGGAGUUUAUCAUG [A19C G83U C87U] | -0.445
GGAUCUUCUCGAUCUAACCAAAAAGACAAAUCUGCCACAAAGCUUGAGAGCAUCUUCGGAUUCAGAGGCGGCAGCCUUCGGUGGCGCGAUAGCGUAAACGUUCUCAACUAUGACACGCAAAACGCGUGCUCCGUUGAAUGGAGUUUAUCAUG [A19C G62U C95U C96A] | -2.36
GGAUCUUCUCGAUCUAACCAAAAAGACAAAUCUGCCACAAAGCUUGAGAGUGUCUUCGGAUGCAGAGGCGGCAGCCUUCGGUGUCGCGUUAGCGCCAACGUUCUCAACUAUGACACGCAAAACUCGUGCUCCGUUGAAUGUAGUUUAUCAUG [A19C C51U A52G G84U A89U G124U G141U] | -1.23
GGAUCUUCUCGAUCUAACCAAAAAGACAAAUCUGCCACAAAGCUUGACAGAAUCUUCGGAUGCAGAGGCGGCAGCCUUCGGUGGCUCGAUAGCGCCAACGUUCUCAACUAUGACACGCAAAACGCGUUCUCCGUUGAAUGGAGUUUAUCAUG [A19C G48C C51A G86U G128U] | ≤ -4.2
